Results as given in US20080009021A1.

Target: E3 His-ROC1/Cul1 complex (UniProt Q13616)
Assay: cell-based or functional assay

- amount of E3 giving maximum attachment of ubiquitin moiety to E3 (luminescence, nickel plate) (ng per 100 µl): 200 to 300
Substance: Flag-ubiquitin moiety
